# According to the supplement of paper PMC6757056:
# ± gives the standard deviation of the averaged measurements.
# B1: library; a variant is named by its letters at N, in order (parent)
# chain: GCUGUCACCGGAAUACCAGCAUCGUCUUGAUGCCCUUGGAAGUCCGGUCUGAUGAGUCCNNNNNGGACGAAACAGC
# Tests used:
# theophylline [1] = variants of: B1; assay: FACS-Seq fitted mean relative fluorescence mCherry/BFP without ligand (log10 relative fluorescence); higher = higher reporter protein expression; settings: HEK293T, ligand present: no
# How it was run: (§1)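 Fluorescence is reported as a normalized fitted mean of sorted-bin read counts. Lentivirally transduced HEK293T libraries (mCherry ribozyme-switch reporter, EF1α-BFP marker) were enriched, treated with or without ligand for 48 h, and sorted into 6 mCherry/BFP bins for MiSeq sequencing of PCR-amplified genomic DNA. The normal fit was on log10(mCherry/BFP), scaled to five spiked-in control ribozymes.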
# theophylline [2] = variants of: B1; assay: normalized RNA/DNA level with ligand (relative to sTRSVctl = 100) (log10 (% of sTRSVctl)); higher = less ribozyme self-cleavage, higher mRNA level; settings: ligand concentration (+) RNA-Seq: 5 mM, HEK293T, reporter: mCherry (pCS4076), ligand present: yes
# How it was run: (§2)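 For each 6-well well, 4 µg of library plasmid encoding mCherry-linked ribozyme switches, or eGFP-linked ones in some ligand experiments, was transfected into HEK293T. Any ligand was added 1 h before transfection, and RNA was extracted with EDTA 72 h after it, then reverse-transcribed, amplified, barcoded and sequenced. RNA level was obtained by dividing RNA reads by DNA reads, normalizing to a spiked-in non-cleaving sequence or to the top sequences, then scaling and log-transforming. The top set was 25 sequences, scaling was ×100 with log10, and ≥100 DNA reads were required.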
# theophylline [3] = variants of: B1; assay: normalized RNA/DNA level without ligand (relative to sTRSVctl = 100) (log10 (% of sTRSVctl)); higher = less ribozyme self-cleavage, higher mRNA level; settings: HEK293T, reporter: mCherry (pCS4076), ligand present: no
# How it was run: as §2
# theophylline [4] = variants of: B1; assay: FACS-Seq fitted mean relative fluorescence mCherry/BFP with ligand (log10 relative fluorescence); ligand concentration (+) FACS-Seq: 1 mM; higher = higher reporter protein expression; settings: HEK293T, ligand present: yes
# How it was run: as §1
Variant,FACS-Seq fitted mean (log10) (theophylline [1]),normalized RNA/DNA level with ligand (log10) (theophylline [2]),normalized RNA/DNA level without ligand (log10) (theophylline [3]),FACS-Seq fitted mean (log10) (theophylline [4])
UGUGC,0.71 ± 0.038,2.04 ± 0.047,1.93 ± 0.086,0.652 ± 0.0049
ACGUG,0.7349 ± 0.0044,1.99 ± 0.14,1.76 ± 0.033,0.974 ± 0.16
AAGCC,0.748 ± 0.02,2.03 ± 0.089,2.01 ± 0.071,0.7196 ± 0.0051
CUAUC,1.23 ± 0.19,1.89 ± 0.059,1.93 ± 0.073,1.16 ± 0.078
AGGGA,0.303 ± 0.0048,2.04 ± 0.079,1.48 ± 0.1,0.659 ± 0.029
AGGGU,0.635 ± 0.08,2.05 ± 0.073,1.74 ± 0.05,0.897 ± 0.059
AACCU,0.83 ± 0.037,2.06 ± 0.1,1.949 ± 0.017,0.698 ± 0.016
AACCG,0.924 ± 0.031,2 ± 0.031,1.89 ± 0.071,1.13 ± 0.098
AAGGC,0.518 ± 0.013,1.93 ± 0.046,1.89 ± 0.079,0.476 ± 0.023
AAGGG,0.3836 ± 0.0021,1.85 ± 0.028,1.75 ± 0.037,0.381 ± 0.037
CCGAU,0.974 ± 0.065,2 ± 0.047,1.64 ± 0.11,1.06 ± 0.11
UACUA,0.959 ± 0.069,1.97 ± 0.11,1.67 ± 0.042,1.05 ± 0.071
UUACG,1.08 ± 0.025,2.019 ± 0.0074,1.93 ± 0.029,1.02 ± 0.027
AGUAG,0.85 ± 0.075,1.97 ± 0.1,1.71 ± 0.034,0.8838 ± 0.0022
CACAU,0.589 ± 0.032,1.964 ± 0.0051,1.68 ± 0.099,0.693 ± 0.025
AUGGC,0.932 ± 0.11,2.008 ± 0.0029,1.88 ± 0.085,0.903 ± 0.041
AACAC,0.834 ± 0.025,1.94 ± 0.048,1.91 ± 0.075,0.925 ± 0.089
AAUGU,0.7078 ± 0.0026,1.99 ± 0.056,1.77 ± 0.23,0.788 ± 0.011

Variant,FACS-Seq fitted mean (log10) (theophylline [1]),normalized RNA/DNA level with ligand (log10) (theophylline [2]),normalized RNA/DNA level without ligand (log10) (theophylline [3]),FACS-Seq fitted mean (log10) (theophylline [4])
CACUC,1 ± 0.12,2 ± 0.11,1.98 ± 0.096,0.969 ± 0.1
CACUA,0.228 ± 0.023,1.99 ± 0.058,1.44 ± 0.063,0.437 ± 0.048
UCCCG,1.07 ± 0.16,2.027 ± 0.0081,2.008 ± 0.0028,1.055 ± 0.0097
AUCUU,0.605 ± 0.046,2.03 ± 0.055,1.93 ± 0.086,0.585 ± 0.0056
AUCUC,0.832 ± 0.12,2.03 ± 0.032,1.97 ± 0.013,0.758 ± 0.14
GUAGA,0.949 ± 0.15,1.8 ± 0.057,1.66 ± 0.14,0.935 ± 0.15
UCAAA,-0.0221 ± 0.095,1.97 ± 0.042,1.3 ± 0.091,0.459 ± 0.023
CGAAU,0.071 ± 0.019,1.929 ± 0.0065,1.43 ± 0.076,0.306 ± 0.0069
UGGAU,0.442 ± 0.064,2 ± 0.12,1.79 ± 0.056,0.624 ± 0.073
GCCCU,1.072 ± 0.0027,1.97 ± 0.025,1.98 ± 0.057,0.918 ± 0.027
CUACC,0.996 ± 0.11,1.968 ± 0.015,1.96 ± 0.11,1.02 ± 0.03
CUACA,0.702 ± 0.027,2.031 ± 0.0063,1.84 ± 0.021,0.826 ± 0.11
GAGGG,0.948 ± 0.031,1.91 ± 0.22,1.67 ± 0.03,1.07 ± 0.07
ACUAG,1.14 ± 0.18,2 ± 0.067,2.01 ± 0.043,1.08 ± 0.11
CGCAU,0.678 ± 0.078,1.99 ± 0.018,1.68 ± 0.14,0.776 ± 0.017
UAACA,0.606 ± 0.025,1.99 ± 0.066,1.55 ± 0.053,0.813 ± 0.024
UAACG,0.784 ± 0.07,1.99 ± 0.04,1.87 ± 0.18,0.711 ± 0.018
ACUCG,1.06 ± 0.14,1.95 ± 0.2,1.89 ± 0.11,1.17 ± 0.035
